Target: T1, purified human alpha globin, biotinylated and immobilized on streptavidin biosensors (human, UniProt P69905 2-142, biotinylated using EZ-Link NHS-PEG4 Biotinylation Kit (sites not given))
T1 construct: Ligand on the sensor in the bio-layer interferometry assay; also called full-length alpha globin
Experiment: bio-layer interferometry (Octet RED96), biotinylated alpha globin on streptavidin sensors, AHSP in solution at 62.5-1000 nM; AHSP as analyte on immobilized alpha globin (FIG. 2D)

T1 sequence (P69905 2-142 limits assumed): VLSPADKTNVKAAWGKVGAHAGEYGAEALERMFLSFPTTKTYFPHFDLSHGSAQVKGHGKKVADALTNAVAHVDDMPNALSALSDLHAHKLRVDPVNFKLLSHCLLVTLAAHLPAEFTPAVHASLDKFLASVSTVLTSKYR

Kd: 109 nM
B1: alpha hemoglobin stabilizing protein (other, UniProt Q9NZD4 1-102, looked up)
chain: MALLKANKDLISAGLKEFSVLLNQQVFNDPLVSEEDMVTVVEDWMNFYINYYRQQVTGEPQERDKALQELRQELNTLANPFLAKYRDFLKSHELPSHPPPSS
notes: Comparison analyte in the BLI assay; also called AHSP
